Assay [1] deals with T1, Rhesus macaque EGFR Protein, His Tag (Acro, Cat #EGR-C52H1) (rhesus macaque, UniProt P55245 25-645).
T1 construct: extracellular domain; Bought protein; also called Monkey EGFR; not shown: His tag
Briefly: ELISA, coated antigen 1 ug/mL, antibody 50 nM. How it is done:
(§1) ELISA was used to identify the binding of VHH-IgG4 antibodies to the extracellular domains of mouse EGFR, monkey EGFR, and human EGFR proteins. The detection steps were as follows: Mouse EGFR Protein, His Tag (Acro, Cat #EGR-M5224) and Rhesus macaque EGFR Protein, His Tag (Acro, Cat #EGR-C52H1) were diluted to 1 μg/mL with phosphate buffer, and 100 μL of each dilution was added to a 96-well ELISA plate and coated overnight at 4° C. The next day, the plates were washed twice with PBST (containing 0.5% TWEEN-20) and then blocked with 3% BSA at 37° C. for 1.5 h, followed by two washes with PBST. VHH-IgG4 antibodies were diluted to 50 nM, and 100 μL of the dilution was added to each well and incubated at 37° C. for 1 h. The plates were then washed three times with PBST, and 100 μL of HRP-labeled goat anti-human IgG Fc antibody (1:10000, Bethyl) was added to each well and incubated at 37° C. for another 40 min. After washing the plates four times with PBST, 100 μL of TMB substrate was added to each well, and the reaction was allowed to proceed for 3-5 min. The reaction was stopped by adding 100 μL of 3N hydrochloric acid per well. After stopping the reaction, the optical density at 450/650 nm was measured using a Tecan microplate reader.
(In general: An ELISA detects its analyte on a solid surface through an enzyme-linked reagent.)

In assay [2] the target is T2, Mouse EGFR Protein, His Tag (Acro, Cat #EGR-M5224) (mouse, UniProt Q01279 25-647).
T2 construct: extracellular domain; Bought protein; not shown: His tag
Briefly: ELISA, coated antigen 1 ug/mL, antibody 50 nM. The procedure: as §1

For assay [3], the target named is T3, EGFR-D1D2 (L25-A310, P00533-1 (uniprot)) his tag antigen (human, UniProt P00533 25-310).
T3 construct: range 25-310; also called I+II domain protein; EGFR-D1D2 protein; not shown: His tag
Briefly: ELISA: EGFR-D1D2 his tag antigen coated at 0.5 µg/mL, antibody at 2000, 200, 20, 2 nM, HRP goat anti-human IgG Fc, OD450. The procedure: (2) Protein Binding Epitope Analysis: ELISA was used to determine the binding of VHH-IgG4 antibody to each domain of EGFR extracellular protein. Briefly, EGFR his tag protein, and EGFR-V3-his tag antigen protein were diluted to 1 μg/mL, EGFR-D1D2 (L25-A310, P00533-1 (uniprot)), and EGFR-D4 (F481-S645, P00533-1 (uniprot)) his tag antigen were diluted to 0.5 μg/mL, and each well of an ELISA plate was coated with […] antigen and incubated overnight at 4° C. The next day, the plates were washed twice with PBST (added with 0.5% TWEEN-20), then blocked with 3% BSA at 37° C. for 1.5 h, and then washed twice with PBST. Then, the antibody to be tested was diluted to 50 nM, 5 nM, 0.5 nM, 0.05 nM, and added to the wells coated with EGFR his tag protein or EGFR-V3-his tag antigen at 100 µL/well, respectively. The antibody was diluted to 2000 nM, 200 nM, 20 nM, 2 nM, and added to the wells coated with EGFR his tag protein or EGFR-V3-his tag antigen at 100 µL/well, respectively. The ELISA plates were incubated at 37° C. for 1 h. The plates were then washed three times with PBST, and then 100 μL HRP labeled Goat anti human IgG Fc antibody (1:10000, Bethyl) was added into each well, and incubated at 37° C. for another 40 min. After washing the plates four times with PBST, 100 μL of TMB substrate was added to each well, and the reaction was allowed to proceed for 3-5 min. The reaction was stopped by adding 100 μL of 3N hydrochloric acid per well. After stopping the reaction, the optical density at 450/650 nm was measured using a Tecan microplate reader.

Assay [4] has as its target T4, Region III of EGFR expressed on HEK293T cells (human, UniProt P00533).
T4 construct: also called HEK293T EGFR-III cells; stably transformed cell line 293T overexpressing EGFR III region protein
Briefly: flow cytometry on HEK293T cells expressing EGFR region III, anti-human IgG PE, MFI, curve fit; unit from the concentration axis and paragraph 62 [table]. How it is done: HEK293T cells that express Region III of EGFR (i.e., HEK293T […] cells) were plated in a 96-well plate with 3×10⁵ cells/well, and then HEK293T […] cells were incubated with gradient diluted VHH-IgG4 antibody. After incubation for half an hour, anti-human IgG PE (Jackson Immuno Research, Code: 109-117-008, Lot:145501) as the secondary antibody for detection was added for incubation, and then CytoFLEX flow cytometer was used for detection. The EC50 of the antibody was calculated by curve fitting with Graphprism8.0 software. Isotype 1 in the figure is a negative control, and its amino acid sequence is shown as SEQ ID NO: 2 in CN106046152A.
A general note: Flow cytometry measures light scatter and fluorescence of single cells or particles in a stream.

Assay [5] deals with T5, human EGFR.His antigen (Acro, Cat #EGR-H522a) (human, UniProt P00533 25-645).
T5 construct: extracellular domain; Bought protein; also called EGFR his tag protein; full-length EGFR extracellular domain protein; not shown: His tag
Briefly: SPR, antibody captured on protein A, EGFR.His in flow. How it is done: The binding kinetics and affinity of candidate antibody to human EGFR.His antigen were determined using surface plasmon resonance (SPR). The purified antibody was flowed through the sensor chips pre-immobilized with protein A, and the antibody was captured by protein A. Then five different concentrations of EGFR.His protein were used as the mobile phase, and the binding time and dissociation time were […], respectively. The binding rate (kon), dissociation rate (koff), and equilibrium constant (kD) were analyzed using Biacore Evaluation Software 2.0 (GE). EC225, an antibody that binds to region III of human EGFR, was selected as a positive control (sequence source https.//go.drugbank.com/drugs/DB00002).
On the technique in general: SPR reads the build-up and loss of mass on a sensor chip optically.

B1: E004 VHH-IgG4 antibody (antibody, V domains shown, not shown: a dimerising Fc or GST)
VH: EVQLVESGGGLAQSGGSLRLACEASGFPFETYAMSWARQTPGNEPEWVAGIFPDGKHTAYAHSVKGRFTISRVNANNTVYLQMDSLKPEDTAVYYCAKDLPFFATPSFYIGYWGQGTLVTVSS
Turning to B1, the OD450 in assay [1] was found to be 3.64 OD450. Moreover, in assay [2], the OD450 was 3.37 OD450. Moreover, in assay [3], the binding result is given as “no binding (tested: 2000 nM)”. In assay [4], this molecule displayed a concentration giving a half-maximal response (EC50) of 0.39 nM. In assay [5], the affinity, expressed as Kd, was 5.17 nM; the koff was 0.000776 s⁻¹; the on-rate constant (kon) is 150000 M⁻¹ s⁻¹.

B2: E002 VHH-IgG4 antibody (antibody, V domains shown)
VH: QVQLVESGGGLVQAGGSLRLSCAASGFTFSDYAVSWYRQAPGKEREFVARITGTGETSRYEDSVKGRFAISRDNVKNTAYLQMNSLKPEDTAVYYCSIYHPPRDYWGQGTQVTVSS
notes: VHH fused to IgG4 (VHH-IgG4), expressed in ExpiCHO, protein A purified; not shown: human IgG4 constant part from the pCDNA3.4-IgG4 vector
B2 had an OD450 in assay [1] of 3.06 OD450. In addition, in assay [2], the OD450 was 2.73 OD450. Moreover, the binding result in assay [3] is on record as “no binding (tested: 2000 nM)”. Also, the concentration giving a half-maximal response (EC50) in assay [4] was 0.095 nM. In addition, in assay [5], the Kd is 2.49 nM, the koff came to 0.000121 s⁻¹ and the on-rate (kon) was found to be 48500 M⁻¹ s⁻¹.

B3: E003 VHH-IgG4 antibody (antibody, V domains shown, not shown: a dimerising Fc or GST)
VH: QVQLVESGGGLVQPGGSLRLSCVASGGVFSSYAMGWYRQVPGKLRELVATITSGHSTTYADIVRGRFTISRDNTKNTVYLQMNRLEPDDTAVYYCNRSPYTPGNWGQGTLVTVSS
For the molecule B3, the OD450 in assay [1] came out at 3.15 OD450. The OD450 in assay [2] was 2.8 OD450. The binding result in assay [3] was “no binding (tested: 2000 nM)”. This molecule also registered a concentration for a half-maximal effect (EC50) in assay [4] of 0.36 nM. Besides, in assay [5], the Kd came out at 4.68 nM, the koff came to 0.000133 s⁻¹ and the kon was 28400 M⁻¹ s⁻¹.

B4: E005 VHH-IgG4 antibody (antibody, V domains shown)
VH: QVQLVESGGGLVQPGGSLRLSCEASGFAFSDYTMRWHRQAAGKELELVAYITSAGDIIKYANSVRGRFTISRDNAKNTLYLQMDSLKPEDTAVYRCNALVSASVRASDYWGQGTLVTVSS
notes: as for B2
B4 registered an OD450 in assay [1] of 3.19 OD450. Further, the OD450 in assay [2] amounted to 3.33 OD450. The binding result in assay [3] was “no binding (tested: 2000 nM)”. Besides, in assay [4], the EC50 was 0.98 nM. In assay [5], binding was put at a Kd of 2.86 nM, the off-rate (koff) was found to be 4.67e-05 s⁻¹ and the on-rate (kon) was determined as 16400 M⁻¹ s⁻¹.

B5: E007 VHH-IgG4 antibody (antibody, V domains shown, not shown: a dimerising Fc or GST)
VH: EVQLVESGGGLVQPGGSLRLSCEASGFSFSDHTMRWHRQAAGKNLELVAYITPAGDIIKYADSVQGRFTISRDNAKNMLYLQMDSLRPDDTAVYRCNALVSAAVRASDYWGQGTQVTVSS
In turn, B5 displayed an OD450 in assay [1] of 3.35 OD450. The same molecule showed an OD450 in assay [2] of 3.21 OD450. Moreover, the binding result in assay [3] is on record as “no binding (tested: 2000 nM)”. This molecule also had an EC50 in assay [4] of 0.47 nM. In assay [5], this molecule displayed an equilibrium dissociation constant (Kd) of 0.292 nM, a dissociation rate constant (koff) of 1.08e-05 s⁻¹ and a kon of 37100 M⁻¹ s⁻¹.

B6: E008 VHH-IgG4 antibody (antibody, V domains shown)
VH: EVQVVESGGGLVQSGGSLTLSCTSSGLPLLDYAIGWFRQAPGKEREAVSAISISEGSTYYTDSVRGRFTISRDNNKNKVYLRMDNLKPEDTAVYYCAADKTDIGFWLLVGGAGGGEVRYEYWGQGTQVTVSS
notes: as for B2
In assay [1], B6 returned an OD450 of 3.68 OD450. Besides, the OD450 in assay [2] came out at 0.72 OD450. Moreover, the binding result in assay [3] was “no binding (tested: 2000 nM)”. In addition, the concentration giving a half-maximal response (EC50) in assay [4] worked out at 0.18 nM. Also, in assay [5], the Kd was 9.62 nM, the off-rate (koff) came out at 0.0148 s⁻¹ and the kon turned out to be 1.53e+06 M⁻¹ s⁻¹.

One may read the EC50 as the concentration at which the effect is half-maximal. Lower therefore signals a more potent agent. What is called Kd is the constant that tells how readily two partners part at equilibrium. Usually koff stands for the rate constant with which the complex falls apart. A higher koff goes with a short-lived complex. What is called kon is a measure of how fast the partners come together. Higher therefore signals fast association.
